Measured values: patent US20060121580A1

B1: single-chain phage antibody SC03-006 (scFv)
scFv: SMAEVQLVESGGGLVQPGGSLRLSCAASGFTFSGYPMHWVRQAPGKGLEWVAVISYDGSNKYYADSVKGRFTISRDNSKNTLYLQMNSLRAEDTAVYYCAKDGSPRTPSFDYWGQGTLVTVLEGTGGSGGTGSGTGTSELDIQMTQSPHSLSASVGDRVTITCRASQGISNYLAWYQQKPGKVPKLLIYAASTLQSGVPSRFSGSGSGTDFTLTISSLQPEDVGVYYCQQRFRTPVTFGQGTKLEIKRAAA
B2: single-chain phage antibody SC03-012 (scFv)
scFv: AMAQVQLVQSGAEVKKPGASVKVSCKASGYTFTSYGISWVRQAPGQGLEWMGWISAYNGNTNYAQKLQGRVTMTTDTSTSTAYMELSSLRSDDTAVYYCARMFRKSSFDSWGQGTLVTVSRGGGGSGGGGSGGGGSSELTQDPAVSVALGQTVRITCQGDSLRSYYASWYQQKPGQAPVLVIYGKNNRPSGIPDRFSGSSSGNTASLTITGAQAEDEADYYCNSRDSSGNHVVFGGGTKLTVLGAAA
B3: single-chain phage antibody SC03-015 (scFv)
scFv: AMAEVQLVESGGGVVRPGGSLRLSCAASGFTFDDYGMSWVRQAPGKGLEWVSGINWNGGSTGYADSVKGRFTISRDNAKNSLYLQMNSLRAEDTAVYYCARGLSLRPWGQGTLVTVSRGGGGSGGGGSGGGGSSELTQDPAVSVALGQTVRITCQGDSLRSYYASWYQQKPGQAPVLVIYGKNNRPSGIPDRFSGSSSGNTASLTITGAQAEDEADYYCNSRDSSGNHVVFGGGTKLTVLGAAA

Target: inactivated SARS-CoV preparation (Frankfurt 1 strain), gamma-irradiated

| Binder | OD492 nm |
| --- | --- |
| B1 | 1.06 OD492 nm |
| B2 | 0.495 OD492 nm |
| B3 | 0.796 OD492 nm |
